Test results reported in the supplement of paper PMC9112550, “Optimization of the antimicrobial peptide Bac7 by deep mutational scanning” (BMC Biology, 2022).

Tested on: Escherichia coli TOP10
Test: shrunken log2 fold change of peptide-encoding DNA abundance (4.5 h post-induction vs induction); higher = less antimicrobial activity (less host growth inhibition)
Settings: time post-induction: 4.5 h; library: site-saturation at positions 5, 18, 19, 20
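Note: peptides expressed intracellularly from a pBAD plasmid library in pooled LB shake-flask culture, induced with 0.3% L-arabinose, DNA abundance read by NGS, three biological replicates, DESeq2 with apeglm shrinkage.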

| Sequence | shrunken log2 fold change |
| --- | --- |
| RRIRDRPPRLPRPRPRPWMTPRP | -0.29 |
| RRIRRRPPRLPRPRPRPDQGPRP | -0.0712 |
| RRIRWRPPRLPRPRPRPCVWPRP | 0.738 |
| RRIRKRPPRLPRPRPRPCWSPRP | 0.00256 |
| RRIRGRPPRLPRPRPRPGEGPRP | 1.15 |
| RRIRPRPPRLPRPRPRPPVRPRP | 0.353 |
| RRIRRRPPRLPRPRPRPMLNPRP | -0.157 |
| RRIRYRPPRLPRPRPRPNVCPRP | 0.00285 |
| RRIRWRPPRLPRPRPRPQTGPRP | -0.000887 |
| RRIRIRPPRLPRPRPRPMNCPRP | 0.0904 |
| RRIRWRPPRLPRPRPRPFYNPRP | -0.242 |
| RRIRMRPPRLPRPRPRPNMLPRP | -0.358 |
| RRIRFRPPRLPRPRPRPWSCPRP | -0.175 |
| RRIRTRPPRLPRPRPRPLCDPRP | -0.714 |
| RRIRFRPPRLPRPRPRPWVSPRP | -0.272 |
| RRIRLRPPRLPRPRPRPSVCPRP | 0.0879 |
| RRIRSRPPRLPRPRPRPYPRPRP | -0.45 |
| RRIRERPPRLPRPRPRPPIEPRP | -0.227 |
| RRIRMRPPRLPRPRPRPDFSPRP | 0.0199 |
| RRIRARPPRLPRPRPRPHSMPRP | 0.104 |
| RRIRDRPPRLPRPRPRPADQPRP | 0.553 |
| RRIRARPPRLPRPRPRPWNWPRP | 0.376 |

| Sequence | shrunken log2 fold change |
| --- | --- |
| RRIRWRPPRLPRPRPRPMWRPRP | 0.328 |
| RRIRRRPPRLPRPRPRPLSIPRP | -0.288 |
| RRIRWRPPRLPRPRPRPTQLPRP | 0.0699 |
| RRIRPRPPRLPRPRPRPYRAPRP | -0.329 |
| RRIRKRPPRLPRPRPRPMALPRP | -0.00663 |
| RRIRARPPRLPRPRPRPTYNPRP | -0.121 |
| RRIRNRPPRLPRPRPRPYLLPRP | -0.27 |
| RRIRNRPPRLPRPRPRPGWWPRP | -0.0419 |
| RRIRGRPPRLPRPRPRPYRNPRP | -0.39 |
| RRIRYRPPRLPRPRPRPRYTPRP | -0.0817 |
| RRIRARPPRLPRPRPRPKKTPRP | -0.0919 |
| RRIRHRPPRLPRPRPRPYGEPRP | -1.23 |
| RRIRRRPPRLPRPRPRPMNKPRP | 0.0717 |
| RRIRMRPPRLPRPRPRPPIDPRP | 0.0677 |
| RRIRYRPPRLPRPRPRPNPRPRP | -0.123 |
| RRIRCRPPRLPRPRPRPHLNPRP | -0.627 |
| RRIRDRPPRLPRPRPRPVDEPRP | -0.023 |
| RRIRFRPPRLPRPRPRPAIGPRP | -0.0142 |
| RRIRGRPPRLPRPRPRPWLKPRP | -0.24 |
| RRIRYRPPRLPRPRPRPIWQPRP | -0.105 |
| RRIRNRPPRLPRPRPRPVFAPRP | -0.0312 |
| RRIRNRPPRLPRPRPRPPLIPRP | -0.193 |

| Sequence | shrunken log2 fold change |
| --- | --- |
| RRIRSRPPRLPRPRPRPFDCPRP | -0.277 |
| RRIRHRPPRLPRPRPRPSPIPRP | -0.175 |
| RRIRPRPPRLPRPRPRPLTSPRP | -0.125 |
| RRIRQRPPRLPRPRPRPCDPPRP | -0.0819 |
| RRIRLRPPRLPRPRPRPPFIPRP | -0.635 |
| RRIRVRPPRLPRPRPRPIKVPRP | -0.167 |
| RRIRGRPPRLPRPRPRPKIGPRP | 0.752 |
| RRIRARPPRLPRPRPRPYDTPRP | -0.0699 |
| RRIRNRPPRLPRPRPRPCATPRP | -0.0524 |
| RRIRGRPPRLPRPRPRPECFPRP | 1.92 |
| RRIRHRPPRLPRPRPRPAAQPRP | -0.0888 |
| RRIRKRPPRLPRPRPRPNMYPRP | -0.14 |
| RRIRMRPPRLPRPRPRPDCNPRP | 2.08 |
| RRIRERPPRLPRPRPRPIPQPRP | 0.13 |
| RRIRVRPPRLPRPRPRPANPPRP | -0.21 |
| RRIRNRPPRLPRPRPRPRKSPRP | 0.132 |
| RRIRFRPPRLPRPRPRPPWAPRP | 0.267 |
| RRIRWRPPRLPRPRPRPMKPPRP | -0.0125 |
| RRIRTRPPRLPRPRPRPCEMPRP | 0.0671 |
| RRIRRRPPRLPRPRPRPWNMPRP | -0.479 |
| RRIRLRPPRLPRPRPRPLHHPRP | -0.533 |
| RRIRVRPPRLPRPRPRPSHAPRP | -0.24 |

| Sequence | shrunken log2 fold change |
| --- | --- |
| RRIRERPPRLPRPRPRPYSRPRP | -0.195 |
| RRIRARPPRLPRPRPRPFMNPRP | -0.0629 |
| RRIRWRPPRLPRPRPRPYAYPRP | 0.0461 |
| RRIRNRPPRLPRPRPRPVNRPRP | 0.00717 |
| RRIRSRPPRLPRPRPRPLCNPRP | -0.278 |
| RRIRIRPPRLPRPRPRPGSHPRP | 0.141 |
| RRIRDRPPRLPRPRPRPTRCPRP | 1.35 |
| RRIRQRPPRLPRPRPRPIHIPRP | -0.187 |
| RRIRQRPPRLPRPRPRPIKMPRP | -0.39 |
| RRIRQRPPRLPRPRPRPWWLPRP | 0.27 |
| RRIRMRPPRLPRPRPRPRCWPRP | 0.666 |
| RRIRHRPPRLPRPRPRPRKDPRP | -0.0956 |
| RRIRARPPRLPRPRPRPGSWPRP | 0.759 |
| RRIRLRPPRLPRPRPRPRKDPRP | 0.0699 |
| RRIRKRPPRLPRPRPRPNEKPRP | 0.218 |
| RRIRGRPPRLPRPRPRPIFVPRP | 0.42 |
| RRIRTRPPRLPRPRPRPSYSPRP | -0.316 |
| RRIRQRPPRLPRPRPRPQPSPRP | 0.44 |
| RRIRSRPPRLPRPRPRPILMPRP | -0.172 |
| RRIRKRPPRLPRPRPRPKIRPRP | 0.246 |
| RRIRRRPPRLPRPRPRPWNDPRP | -0.345 |
| RRIRRRPPRLPRPRPRPIDCPRP | 0.00203 |

| Sequence | shrunken log2 fold change |
| --- | --- |
| RRIRNRPPRLPRPRPRPLQLPRP | -0.288 |
| RRIRFRPPRLPRPRPRPETQPRP | -0.0941 |
| RRIRGRPPRLPRPRPRPFIPPRP | -0.429 |
| RRIRARPPRLPRPRPRPEVAPRP | 0.214 |
| RRIRPRPPRLPRPRPRPMAGPRP | -0.13 |
| RRIRERPPRLPRPRPRPFWKPRP | -0.125 |
| RRIRGRPPRLPRPRPRPSGIPRP | 0.0684 |
| RRIRIRPPRLPRPRPRPPCVPRP | -0.173 |
| RRIRHRPPRLPRPRPRPADHPRP | 0.134 |
| RRIRNRPPRLPRPRPRPVPEPRP | 0.61 |
| RRIRIRPPRLPRPRPRPMESPRP | -0.00136 |
| RRIRSRPPRLPRPRPRPGVSPRP | 0.119 |
| RRIRERPPRLPRPRPRPWAGPRP | -0.208 |
| RRIRHRPPRLPRPRPRPYHMPRP | -0.0151 |
| RRIRLRPPRLPRPRPRPNQFPRP | 0.0261 |
| RRIRFRPPRLPRPRPRPPCEPRP | 0.409 |
| RRIRIRPPRLPRPRPRPKTPPRP | -0.0573 |
| RRIRFRPPRLPRPRPRPDRVPRP | 0.0813 |
| RRIRKRPPRLPRPRPRPCLYPRP | -0.0745 |
| RRIRGRPPRLPRPRPRPQWLPRP | 0.136 |
| RRIRIRPPRLPRPRPRPMYFPRP | -0.609 |
